Data published in PMC4059916.

Target: VARP451-640His6 Q509A (human) (UniProt Q96NW4)
Assay: ITC; Nano ITC; VARP constructs at 60 μM in the cell at 4°C, Rab constructs at 300 μM titrated, 24 injections of 2 μl; 50 mM HEPES pH 7.4, 200 mM NaCl, 5 mM MgCl2, 1 mM TCEP

Chain of VARP451-640His6 Q509A (human) (Q96NW4 451-640 Q509A): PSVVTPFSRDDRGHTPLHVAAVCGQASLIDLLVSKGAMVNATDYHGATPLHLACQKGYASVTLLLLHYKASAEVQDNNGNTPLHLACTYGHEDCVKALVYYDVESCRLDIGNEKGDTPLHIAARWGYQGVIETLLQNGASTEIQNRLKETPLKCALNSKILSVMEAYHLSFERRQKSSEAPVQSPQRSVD

Kd: 30 µM
Substance: Rab32 1-225 (Q85L), GTP hydrolysis-defective mutant, GST removed (from UniProt Q13637 1-225) (enzyme)
